Assay results taken from PMC5669894 (2017).
Where two headings read alike, the source gives them in different places.

Tests used:
[1] = target: T1, C-terminal SH3 domain of the growth factor receptor-bound protein 2 (Grb2) (UniProt P62993 158-211)
[2] = target: T1, C-terminal SH3 domain of the growth …; remark: listed apart in the source
[3] = target: T1, C-terminal SH3 domain of the growth …; remark: listed apart in the source

T1 sequence (P62993 156-215): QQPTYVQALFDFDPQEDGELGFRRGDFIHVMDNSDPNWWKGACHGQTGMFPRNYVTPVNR

B1: Gab2 503-524 peptide, variant P510A (peptide)
peptide: SRGSEIQAPPVNRNLKPDRKAK
B1 was tested, and the koff [1] was 100 s⁻¹.

B2: Gab2 503-524 peptide, variant P519A (peptide)
peptide: SRGSEIQPPPVNRNLKADRKAK
B2 showed a koff [2] of 250 s⁻¹.

B3: Gab2 503-524 peptide, variant P512A (peptide)
peptide: SRGSEIQPPAVNRNLKPDRKAK
In the case of B3, the koff [3] is reported as 90 s⁻¹.
